Laboratory results: paper PMC4510971

Tests used:
Test in all cases: ITC; 0.450 mM UBN1 injected into a cell with 30 μM H3/H4, 22 °C; 20 mM HEPES pH 7.5, 750 mM NaCl, 1 mM TCEP
[1] = biological target: Asf1(1–169)/H3.3(60–135)/H4(20–102) (S. cerevisiae | X. laevis) (UniProt P32447)
[2] = biological target: H3.3(G90M)/H4 (human | X. laevis) (UniProt P62799)
[3] = biological target: H3.3(SAVM)/H4 (human | X. laevis) (UniProt P84243)

Sequence of UBN1(122–148) peptide (Q9NPG3 122-148): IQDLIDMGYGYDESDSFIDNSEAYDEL

UBN1(122–148) peptide (from UniProt Q9NPG3 122-148)
Kd [1]: 110 µM
fold decrease in binding relative to H3.3 WT [2]: 3 fold
fold decrease in binding relative to H3.3 WT [3]: 3 fold
